Data: patent US20260242419A1, “A CYCLIC PEPTIDE FOR TRAPPING INTERLEUKIN-1 BETA” (Merck Sharp & Dohme LLC, priority 2023, published 2026)
Starred links: 1 amine or outer side, 2 acyl side, 3 side chain; linkers in the order of their positions; H or OH if unused. Non-standard residues stand in square brackets, D forms with d. TyrEtNAc = (2S)-3-[4-(2-acetamidoethoxy)phenyl]-2-amino-propanoic acid, CC(=O)NCCOc1ccc(C[C@H](N[*:1])C(=O)[*:2])cc1; Phe(4-(4-Ac-piperazinyl)) = CC(=O)N1CCN(c2ccc(C[C@H](N)C(=O)O)cc2)CC1; Trp(4-Cl)(βS-Me) = C[C@@H](c1c[nH]c2cccc(Cl)c12)[C@H](N)C(=O)O; dPro(4R-(4-pyridylmethyl)) = O=C(O)[C@H]1C[C@@H](Cc2ccncc2)CN1; Trp(βS-Me,4-F) = C[C@@H](c1c[nH]c2cccc(F)c12)[C@H](N)C(=O)O; Bip(4'-COOH) = N[C@@H](Cc1ccc(-c2ccc(C(=O)O)cc2)cc1)C(=O)O; Ala(1-bicyclo(1.1.1)pentyl) = N[C@@H](CC12CC(C1)C2)C(=O)O; dPro(3S-(4-F-Bn)) = O=C(O)[C@@H]1NCC[C@@H]1Cc1ccc(F)cc1; Phe(2-Cl,4-COOH) = N[C@@H](Cc1ccc(C(=O)O)cc1Cl)C(=O)O; 1Nal(3S-Me) = C[C@@H](c1cccc2ccccc12)[C@H](N)C(=O)O; Ala(pyrimidin-5-yl) = N[C@@H](Cc1cncnc1)C(=O)O; Phe(4-CONH2) = NC(=O)c1ccc(C[C@H](N)C(=O)O)cc1; Phe(4-COOH) = N[C@@H](Cc1ccc(C(=O)O)cc1)C(=O)O; Pro(cis-4-F) = O=C(O)[C@@H]1C[C@H](F)CN1; Ala(4-THP) = N[C@@H](CC1CCOCC1)C(=O)O; d(αMeD) = C[C@@](N)(CC(=O)O)C(=O)O; 4Pal = N[C@@H](Cc1ccncc1)C(=O)O; d(αMeS) = C[C@@](N)(CO)C(=O)O; Dab = NCC[C@H](N)C(=O)O; Aib = CC(C)(N)C(=O)O

B1: SEQ ID NO 371 (peptide)
peptide: cyclo([TyrEtNAc][Ala(1-bicyclo(1.1.1)pentyl)][Phe(4-COOH)]G[Pro(cis-4-F)][Trp(βS-Me,4-F)][Aib]SW[d(αMeS)][Ala(4-THP)]Q[Dab]G[dPro(3S-(4-F-Bn))])
SMILES: CC(=O)NCCOc1ccc(C[C@@H]2NC(=O)[C@H]3[C@@H](Cc4ccc(F)cc4)CCN3C(=O)CNC(=O)[C@H](CCN)NC(=O)[C@H](CCC(N)=O)NC(=O)[C@H](CC3CCOCC3)NC(=O)[C@@](C)(CO)NC(=O)[C@H](Cc3c[nH]c4ccccc34)NC(=O)[C@H](CO)NC(=O)C(C)(C)NC(=O)[C@H]([C@@H](C)c3c[nH]c4cccc(F)c34)NC(=O)[C@@H]3C[C@H](F)CN3C(=O)CNC(=O)[C@H](Cc3ccc(C(=O)O)cc3)NC(=O)[C@H](CC34CC(C3)C4)NC2=O)cc1
B2: SEQ ID NO 364 (peptide)
peptide: cyclo([Bip(4'-COOH)][4Pal][Phe(4-COOH)]G[Pro(cis-4-F)][Trp(βS-Me,4-F)][Aib]SW[d(αMeS)][Ala(4-THP)]Q[Dab]G[dPro(4R-(4-pyridylmethyl))])
SMILES: C[C@@H](c1c[nH]c2cccc(F)c12)[C@@H]1NC(=O)[C@@H]2C[C@H](F)CN2C(=O)CNC(=O)[C@H](Cc2ccc(C(=O)O)cc2)NC(=O)[C@H](Cc2ccncc2)NC(=O)[C@H](Cc2ccc(-c3ccc(C(=O)O)cc3)cc2)NC(=O)[C@H]2C[C@@H](Cc3ccncc3)CN2C(=O)CNC(=O)[C@H](CCN)NC(=O)[C@H](CCC(N)=O)NC(=O)[C@H](CC2CCOCC2)NC(=O)[C@@](C)(CO)NC(=O)[C@H](Cc2c[nH]c3ccccc23)NC(=O)[C@H](CO)NC(=O)C(C)(C)NC1=O
B3: SEQ ID NO 369 (peptide)
peptide: cyclo([TyrEtNAc][4Pal][Phe(4-COOH)]G[Pro(cis-4-F)][Trp(βS-Me,4-F)][Aib]SW[d(αMeD)][Ala(pyrimidin-5-yl)]Q[Dab]G[dPro(3S-(4-F-Bn))])
SMILES: CC(=O)NCCOc1ccc(C[C@@H]2NC(=O)[C@H]3[C@@H](Cc4ccc(F)cc4)CCN3C(=O)CNC(=O)[C@H](CCN)NC(=O)[C@H](CCC(N)=O)NC(=O)[C@H](Cc3cncnc3)NC(=O)[C@@](C)(CC(=O)O)NC(=O)[C@H](Cc3c[nH]c4ccccc34)NC(=O)[C@H](CO)NC(=O)C(C)(C)NC(=O)[C@H]([C@@H](C)c3c[nH]c4cccc(F)c34)NC(=O)[C@@H]3C[C@H](F)CN3C(=O)CNC(=O)[C@H](Cc3ccc(C(=O)O)cc3)NC(=O)[C@H](Cc3ccncc3)NC2=O)cc1
B4: SEQ ID NO 370 (peptide)
peptide: cyclo([TyrEtNAc][Ala(1-bicyclo(1.1.1)pentyl)][Phe(4-COOH)]G[Pro(cis-4-F)][Trp(βS-Me,4-F)][Aib]SW[d(αMeD)][Ala(4-THP)]Q[Dab]G[dPro(3S-(4-F-Bn))])
SMILES: CC(=O)NCCOc1ccc(C[C@@H]2NC(=O)[C@H]3[C@@H](Cc4ccc(F)cc4)CCN3C(=O)CNC(=O)[C@H](CCN)NC(=O)[C@H](CCC(N)=O)NC(=O)[C@H](CC3CCOCC3)NC(=O)[C@@](C)(CC(=O)O)NC(=O)[C@H](Cc3c[nH]c4ccccc34)NC(=O)[C@H](CO)NC(=O)C(C)(C)NC(=O)[C@H]([C@@H](C)c3c[nH]c4cccc(F)c34)NC(=O)[C@@H]3C[C@H](F)CN3C(=O)CNC(=O)[C@H](Cc3ccc(C(=O)O)cc3)NC(=O)[C@H](CC34CC(C3)C4)NC2=O)cc1
B5: SEQ ID NO 373 (peptide)
peptide: cyclo([TyrEtNAc][Ala(1-bicyclo(1.1.1)pentyl)][Phe(4-CONH2)]G[Pro(cis-4-F)][Trp(βS-Me,4-F)][Aib]SW[d(αMeD)][Ala(4-THP)]Q[Dab]G[dPro(3S-(4-F-Bn))])
SMILES: CC(=O)NCCOc1ccc(C[C@@H]2NC(=O)[C@H]3[C@@H](Cc4ccc(F)cc4)CCN3C(=O)CNC(=O)[C@H](CCN)NC(=O)[C@H](CCC(N)=O)NC(=O)[C@H](CC3CCOCC3)NC(=O)[C@@](C)(CC(=O)O)NC(=O)[C@H](Cc3c[nH]c4ccccc34)NC(=O)[C@H](CO)NC(=O)C(C)(C)NC(=O)[C@H]([C@@H](C)c3c[nH]c4cccc(F)c34)NC(=O)[C@@H]3C[C@H](F)CN3C(=O)CNC(=O)[C@H](Cc3ccc(C(N)=O)cc3)NC(=O)[C@H](CC34CC(C3)C4)NC2=O)cc1
B6: SEQ ID NO 365 (peptide)
peptide: cyclo([Phe(4-(4-Ac-piperazinyl))][4Pal][Phe(2-Cl,4-COOH)]G[Pro(cis-4-F)][Trp(βS-Me,4-F)][Aib]SW[Aib][Ala(pyrimidin-5-yl)]Q[Dab]G[dPro(4R-(4-pyridylmethyl))])
SMILES: CC(=O)N1CCN(c2ccc(C[C@@H]3NC(=O)[C@H]4C[C@@H](Cc5ccncc5)CN4C(=O)CNC(=O)[C@H](CCN)NC(=O)[C@H](CCC(N)=O)NC(=O)[C@H](Cc4cncnc4)NC(=O)C(C)(C)NC(=O)[C@H](Cc4c[nH]c5ccccc45)NC(=O)[C@H](CO)NC(=O)C(C)(C)NC(=O)[C@H]([C@@H](C)c4c[nH]c5cccc(F)c45)NC(=O)[C@@H]4C[C@H](F)CN4C(=O)CNC(=O)[C@H](Cc4ccc(C(=O)O)cc4Cl)NC(=O)[C@H](Cc4ccncc4)NC3=O)cc2)CC1
B7: SEQ ID NO 372 (peptide)
peptide: cyclo([TyrEtNAc][4Pal][Phe(4-COOH)]G[Pro(cis-4-F)][Trp(βS-Me,4-F)][Aib]SW[d(αMeD)][Ala(4-THP)]Q[Dab]G[dPro(3S-(4-F-Bn))])
SMILES: CC(=O)NCCOc1ccc(C[C@@H]2NC(=O)[C@H]3[C@@H](Cc4ccc(F)cc4)CCN3C(=O)CNC(=O)[C@H](CCN)NC(=O)[C@H](CCC(N)=O)NC(=O)[C@H](CC3CCOCC3)NC(=O)[C@@](C)(CC(=O)O)NC(=O)[C@H](Cc3c[nH]c4ccccc34)NC(=O)[C@H](CO)NC(=O)C(C)(C)NC(=O)[C@H]([C@@H](C)c3c[nH]c4cccc(F)c34)NC(=O)[C@@H]3C[C@H](F)CN3C(=O)CNC(=O)[C@H](Cc3ccc(C(=O)O)cc3)NC(=O)[C@H](Cc3ccncc3)NC2=O)cc1
B8: SEQ ID NO 366 (peptide)
peptide: cyclo([Phe(4-(4-Ac-piperazinyl))][4Pal][Phe(4-COOH)]G[Pro(cis-4-F)][Trp(βS-Me,4-F)][Aib]SW[Aib][Ala(pyrimidin-5-yl)]Q[Dab]G[dPro(4R-(4-pyridylmethyl))])
SMILES: CC(=O)N1CCN(c2ccc(C[C@@H]3NC(=O)[C@H]4C[C@@H](Cc5ccncc5)CN4C(=O)CNC(=O)[C@H](CCN)NC(=O)[C@H](CCC(N)=O)NC(=O)[C@H](Cc4cncnc4)NC(=O)C(C)(C)NC(=O)[C@H](Cc4c[nH]c5ccccc45)NC(=O)[C@H](CO)NC(=O)C(C)(C)NC(=O)[C@H]([C@@H](C)c4c[nH]c5cccc(F)c45)NC(=O)[C@@H]4C[C@H](F)CN4C(=O)CNC(=O)[C@H](Cc4ccc(C(=O)O)cc4)NC(=O)[C@H](Cc4ccncc4)NC3=O)cc2)CC1
B9: SEQ ID NO 368 (peptide)
peptide: cyclo([TyrEtNAc][4Pal][Phe(4-COOH)]G[Pro(cis-4-F)][Trp(βS-Me,4-F)][Aib]SW[Aib][Ala(pyrimidin-5-yl)]Q[Dab]G[dPro(4R-(4-pyridylmethyl))])
SMILES: CC(=O)NCCOc1ccc(C[C@@H]2NC(=O)[C@H]3C[C@@H](Cc4ccncc4)CN3C(=O)CNC(=O)[C@H](CCN)NC(=O)[C@H](CCC(N)=O)NC(=O)[C@H](Cc3cncnc3)NC(=O)C(C)(C)NC(=O)[C@H](Cc3c[nH]c4ccccc34)NC(=O)[C@H](CO)NC(=O)C(C)(C)NC(=O)[C@H]([C@@H](C)c3c[nH]c4cccc(F)c34)NC(=O)[C@@H]3C[C@H](F)CN3C(=O)CNC(=O)[C@H](Cc3ccc(C(=O)O)cc3)NC(=O)[C@H](Cc3ccncc3)NC2=O)cc1
B10: SEQ ID NO 363 (peptide)
peptide: cyclo([TyrEtNAc][4Pal][Phe(2-Cl,4-COOH)]G[Pro(cis-4-F)][1Nal(3S-Me)][Aib]SW[d(αMeD)][Ala(4-THP)]Q[Dab]G[dPro(4R-(4-pyridylmethyl))])
SMILES: CC(=O)NCCOc1ccc(C[C@@H]2NC(=O)[C@H]3C[C@@H](Cc4ccncc4)CN3C(=O)CNC(=O)[C@H](CCN)NC(=O)[C@H](CCC(N)=O)NC(=O)[C@H](CC3CCOCC3)NC(=O)[C@@](C)(CC(=O)O)NC(=O)[C@H](Cc3c[nH]c4ccccc34)NC(=O)[C@H](CO)NC(=O)C(C)(C)NC(=O)[C@H]([C@@H](C)c3cccc4ccccc34)NC(=O)[C@@H]3C[C@H](F)CN3C(=O)CNC(=O)[C@H](Cc3ccc(C(=O)O)cc3Cl)NC(=O)[C@H](Cc3ccncc3)NC2=O)cc1
B11: SEQ ID NO 362 (peptide)
peptide: cyclo([TyrEtNAc][4Pal][Phe(4-COOH)]G[Pro(cis-4-F)][Trp(4-Cl)(βS-Me)][Aib]SW[d(αMeD)][Ala(4-THP)]Q[Dab]G[dPro(4R-(4-pyridylmethyl))])
SMILES: CC(=O)NCCOc1ccc(C[C@@H]2NC(=O)[C@H]3C[C@@H](Cc4ccncc4)CN3C(=O)CNC(=O)[C@H](CCN)NC(=O)[C@H](CCC(N)=O)NC(=O)[C@H](CC3CCOCC3)NC(=O)[C@@](C)(CC(=O)O)NC(=O)[C@H](Cc3c[nH]c4ccccc34)NC(=O)[C@H](CO)NC(=O)C(C)(C)NC(=O)[C@H]([C@@H](C)c3c[nH]c4cccc(Cl)c34)NC(=O)[C@@H]3C[C@H](F)CN3C(=O)CNC(=O)[C@H](Cc3ccc(C(=O)O)cc3)NC(=O)[C@H](Cc3ccncc3)NC2=O)cc1

Each binder was assayed against Recombinant human IL-1β (BioLegend 579404) (human, UniProt P01584 117-269) (assay: cell-based or functional assay).

| Binder | MRC5 IC50 [pM] |
| --- | --- |
| B1 | 14 |
| B2 | 15 |
| cyclo([TyrEtNAc][4Pal][Phe2Cl4COOH]G[Pro(cis-4-F)][Trp(βS-Me,4-F)][Aib]SW[Aib][Ala(pyrimidin-5-yl)]Q[Dab]G[dPro(4R-(4-pyridylmethyl))]) [SEQ ID NO 367] | 17 |
| B3 | 21 |
| B4 | 15 |
| B5 | 12 |
| B6 | 23 |
| B7 | 9 |
| B8 | 21 |
| B9 | 22 |
| B10 | 21 |
| B11 | 23 |
